The target of this experiment is acetylcholine receptor. In words: SPR, receptor immobilized on CM5 chip, peptide 10 uM.

For the molecule KKIDDK [6mer-1-883], the Binding affinity (RU) came out at 21 RU.

For the molecule RRKTPR [6mer-1-885], the Binding affinity (RU) turned out to be 17 RU.

With RRYNNR [6mer-1-879], the Binding affinity (RU) worked out at 27 RU.

RRIPHR [6mer-1-893] gave a Binding affinity (RU) of 22 RU.

Consider KKFMVR [6mer-1-908], for which the Binding affinity (RU) was 37 RU.

In the case of KRFLKK [6mer-2-412], the Binding affinity (RU) was found to be 139 RU.

RWRLRR [6mer-2-416] yielded a Binding affinity (RU) of 131 RU.

Turning to KRDWIK [6mer-1-896], the Binding affinity (RU) was determined as 11 RU.

Molecule RKDTWK [6mer-1-915] showed a Binding affinity (RU) of 27 RU.

RVLSKR [6mer-2-404]: the Binding affinity (RU) came out at 121 RU.

In turn, RKFNWR [6mer-1-924] yielded a Binding affinity (RU) of 29 RU.

Consider KKPEWR [6mer-1-877], for which the Binding affinity (RU) was 19 RU.

Regarding KWRQKK [6mer-2-414], the Binding affinity (RU) amounted to 135 RU.

Molecule RKDHIK [6mer-1-919] displayed a Binding affinity (RU) of 26 RU.

KRMKWK [6mer-1-899]: the Binding affinity (RU) was 31 RU.

The molecule RKFWHR [6mer-1-921] came in with a Binding affinity (RU) of 36 RU.

With KKAMHR [6mer-1-925], the Binding affinity (RU) was found to be 42 RU.

Take RKPAWR [6mer-1-907]: the Binding affinity (RU) amounted to 42 RU.

For the molecule KGYRKK [6mer-2-405], the Binding affinity (RU) amounted to 137 RU.

Molecule KKESNK [6mer-1-930] came in with a Binding affinity (RU) of 43 RU.

With RRASDR [6mer-1-923], the Binding affinity (RU) stood at 43 RU.

Take KKTANK [6mer-1-888]: the Binding affinity (RU) is 33 RU.

RLILKR [6mer-2-413] registered a Binding affinity (RU) of 136 RU.

On to KRADDK [6mer-1-917], for which the Binding affinity (RU) turned out to be 27 RU.

Regarding RRNAAK [6mer-1-916], the Binding affinity (RU) is 33 RU.

As for RRCDHK [6mer-1-929], the Binding affinity (RU) was 25 RU.

For KKDTKR [6mer-1-904], the Binding affinity (RU) is 31 RU.

Molecule KQIYRR [6mer-2-408] had a Binding affinity (RU) of 139 RU.

KRESHR [6mer-1-927] returned a Binding affinity (RU) of 37 RU.

On to RRDWGR [6mer-1-922], for which the Binding affinity (RU) was 34 RU.

RRPAMR [6mer-1-920]: the Binding affinity (RU) was 40 RU.

Molecule KRCAAR [6mer-1-911] returned a Binding affinity (RU) of 28 RU.

In turn, KQVSKR [6mer-2-407] came in with a Binding affinity (RU) of 122 RU.

Turning to RRESMR [6mer-1-918], the Binding affinity (RU) worked out at 33 RU.

Molecule KKHKPR [6mer-1-903] returned a Binding affinity (RU) of 37 RU.

The molecule KKINGK [6mer-1-906] returned a Binding affinity (RU) of 30 RU.

KRFRKK [6mer-2-410] showed a Binding affinity (RU) of 153 RU.

The molecule KRYSRR [6mer-2-402] yielded a Binding affinity (RU) of 145 RU.

Molecule KRFWWK [6mer-1-913] showed a Binding affinity (RU) of 27 RU.

RKFCMR [6mer-1-909] came in with a Binding affinity (RU) of 33 RU.

In the case of KRESDR [6mer-1-926], the Binding affinity (RU) came out at 40 RU.

RKFSNK [6mer-1-886] registered a Binding affinity (RU) of 17 RU.

RKATKR [6mer-1-898] returned a Binding affinity (RU) of 31 RU.

KRIMEK [6mer-1-889] registered a Binding affinity (RU) of 25 RU.

In turn, KKHMER [6mer-1-881] yielded a Binding affinity (RU) of 20 RU.

KGVLRK [6mer-2-403] gave a Binding affinity (RU) of 123 RU.

Take KRYTKR [6mer-1-884]: the Binding affinity (RU) is 26 RU.

In turn, KGIYRR [6mer-2-406] showed a Binding affinity (RU) of 139 RU.

The molecule KRYCPK [6mer-1-928] had a Binding affinity (RU) of 30 RU.

Turning to RKMAFR [6mer-1-891], the Binding affinity (RU) was 13 RU.

For the molecule RRDTGR [6mer-1-900], the Binding affinity (RU) came out at 24 RU.

Molecule RKTEKR [6mer-1-892] yielded a Binding affinity (RU) of 20 RU.

As to KRPMDK [6mer-1-880], the Binding affinity (RU) worked out at 21 RU.

RRPSIK [6mer-1-897]: the Binding affinity (RU) amounted to 24 RU.

Turning to KKDSKK [6mer-1-895], the Binding affinity (RU) is 28 RU.

Regarding KKNWPR [6mer-1-931], the Binding affinity (RU) came out at 35 RU.

In turn, RRKCVR [6mer-1-914] registered a Binding affinity (RU) of 39 RU.

Consider KGRCKK [6mer-2-415], for which the Binding affinity (RU) is 149 RU.

Take RRDKMK [6mer-1-902]: the Binding affinity (RU) turned out to be 39 RU.

KRPTIR [6mer-1-910] showed a Binding affinity (RU) of 42 RU.

In the case of KKPAMR [6mer-1-882], the Binding affinity (RU) was found to be 25 RU.

As for RKCWWR [6mer-1-894], the Binding affinity (RU) turned out to be 18 RU.

As for RRKDNR [6mer-1-878], the Binding affinity (RU) amounted to 27 RU.

Molecule KKETFR [6mer-1-912] displayed a Binding affinity (RU) of 33 RU.

For the molecule RKPNGR [6mer-1-901], the Binding affinity (RU) was 35 RU.

The molecule RSRQKK [6mer-2-411] returned a Binding affinity (RU) of 121 RU.

The molecule RRICER [6mer-1-905] had a Binding affinity (RU) of 36 RU.

Molecule RRTSNK [6mer-1-890] displayed a Binding affinity (RU) of 18 RU.

In the case of KRRRKR [6mer-2-409], the Binding affinity (RU) was 139 RU.

In turn, KRINHR [6mer-1-887] had a Binding affinity (RU) of 30 RU.

As to RKYWAR [6mer-1-876], the Binding affinity (RU) came to 19 RU.

(Values after patent publication US20250011363A1, “OPTIMIZED SHORTENED PEPTIDE THAT BINDS TO ACETYLCHOLINE RECEPTOR, AND USE THEREOF” (SKINMED CO., LTD., priority 2021, published 2025).)
